Test results: patent US20220242962A1 (APTEVO RESEARCH AND DEVELOPMENT, published 2022)
Where two headings read alike, the source gives them in different places.

T1: Full-length Human OX40 (human, UniProt P43489 29-277)
T1 sequence: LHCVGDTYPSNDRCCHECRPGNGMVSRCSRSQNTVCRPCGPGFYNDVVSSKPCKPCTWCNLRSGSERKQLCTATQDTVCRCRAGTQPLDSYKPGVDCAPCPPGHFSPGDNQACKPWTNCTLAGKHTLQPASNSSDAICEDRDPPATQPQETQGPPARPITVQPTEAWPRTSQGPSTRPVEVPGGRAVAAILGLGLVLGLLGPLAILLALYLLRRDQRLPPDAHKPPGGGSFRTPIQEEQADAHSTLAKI

T2: Full-length Cyno 4-1BB (cynomolgus monkey, UniProt Q07011 24-255 (human entry))
T2 construct: on Jurkat or CHO cells; also called FOB006; cynomolgus 4-1BB
T2 chain: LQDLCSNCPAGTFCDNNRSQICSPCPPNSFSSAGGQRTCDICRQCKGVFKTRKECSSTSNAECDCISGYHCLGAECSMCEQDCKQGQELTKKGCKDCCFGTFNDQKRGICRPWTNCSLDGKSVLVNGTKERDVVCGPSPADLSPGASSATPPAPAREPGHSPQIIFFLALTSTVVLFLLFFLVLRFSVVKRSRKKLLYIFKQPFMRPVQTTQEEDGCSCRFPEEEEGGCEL

T3: Full-length Cyno OX40 (cynomolgus monkey, UniProt P43489 29-277 (human entry))
T3 construct: on CHO-K1SV cells; also called OXF004; cynomolgus OX40
T3 chain: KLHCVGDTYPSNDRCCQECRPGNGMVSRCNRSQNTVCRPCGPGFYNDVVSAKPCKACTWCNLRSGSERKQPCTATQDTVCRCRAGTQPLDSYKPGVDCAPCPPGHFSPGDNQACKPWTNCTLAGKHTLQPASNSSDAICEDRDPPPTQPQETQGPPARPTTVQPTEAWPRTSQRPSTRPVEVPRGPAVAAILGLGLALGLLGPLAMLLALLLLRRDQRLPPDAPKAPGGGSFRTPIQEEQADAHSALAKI

T4: Cyno OX40-AFH (cynomolgus monkey)
T4 construct: entry includes the tags; also called OXF005; cyno OX40 ECD
T4 chain: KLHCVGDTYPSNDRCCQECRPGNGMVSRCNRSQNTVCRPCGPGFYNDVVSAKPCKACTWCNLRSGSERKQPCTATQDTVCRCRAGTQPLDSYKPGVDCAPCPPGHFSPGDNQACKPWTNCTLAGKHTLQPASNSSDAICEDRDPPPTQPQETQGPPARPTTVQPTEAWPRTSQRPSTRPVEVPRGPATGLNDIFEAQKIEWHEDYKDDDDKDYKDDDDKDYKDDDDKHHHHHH

T5: Cyno 4-1BB ECD-AFH (cynomolgus monkey)
T5 construct: entry includes the tags; also called FOB004; Cyno CD137 ECD-avi-flag-his
T5 chain: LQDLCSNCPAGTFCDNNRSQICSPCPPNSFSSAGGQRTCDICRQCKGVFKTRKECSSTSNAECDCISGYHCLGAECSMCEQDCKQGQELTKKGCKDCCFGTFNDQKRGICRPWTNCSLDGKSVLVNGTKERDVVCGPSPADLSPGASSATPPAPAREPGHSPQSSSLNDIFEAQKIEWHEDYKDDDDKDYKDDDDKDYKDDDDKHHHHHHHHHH

B1: FXX01066 (bispecific antibody)
chain: EVQLVQSGAEVKKPGASVKVSCKASGYTFTSYWMNWVRQAPGQGLEWMGNIYPSGGSTNYAQKFQGRVTMTVDTSTSTVYMELSSLRSEDTAVYYCASFSDGYYAYAMDYWGQGTLVTVSSGGGGSGGGGSGGGGSGGGGSEIVMTQSPATLSLSPGERATLSCRASQSVSSYLNWYQQKPGQAPRLLIYYASRRHTGIPARFSGSGSGTDFTLTISSLQPEDFAVYYCQQGYNLPYTFGQGTKVEIKEPKSSDKTHTCPPCPAPPAAAPSVFLFPPKPKDTLMISRTPEVTCVVVDVSHEDPEVKFNWYVDGVEVHNAKTKPREEQYNSTYRVVSVLTVLHQDWLNGKEYKCAVSNKALPAPIEKTISKAKGQPREPQVYTLPPSRDELTKNQVSLTCLVKGFYPSDIAVEWESNGQPENNYKTTPPVLDSDGSFFLYSKLTVDKSRWQQGNVFSCSVMHEALHNHYTQKSLSLSPGGGGSPSSYVLTQPPSVSVAPGQTARITCGGNNIGSKSVNWFQQKPGQAPVLVVYDDSGRPSGIPERFSGSTSGNTATLTISRVEAGDEADYYCQVWDSSSDHVVFGGGTKLTVLGGGGSGGGGSGGGGSGGGGSQVQLVESGGGVVQPGRSLRLSCAASGFTLSYYGMHWVRQAPGKGLEWVAAISHDGSDKYYADSVKGRFTISRDNSKNTLYLQMNSLRAEDTAVYYCSNDQFDPWGQGTLVTVSSR
notes: ADAPTIR scFv-Fc-scFv, anti-4-1BB (VH-VL) N-terminal, anti-OX40 C-terminal, PAA (del) Fc; also called FX01066
B2: FXX01115 (bispecific antibody)
chain: EVQLVQSGAEVKKPGASVKVSCKASGYTFTSYWMNWVRQAPGQGLEWMGNIYPSGGSTNYAQKFQGRVTMTVDTSTSTVYMELSSLRSEDTAVYYCASFSDGYYAYAMDYWGQGTLVTVSSGGGGSGGGGSGGGGSGGGGSEIVMTQSPATLSLSPGERATLSCRASQSVSSYLNWYQQKPGQAPRLLIYYASRRHTGIPARFSGSGSGTDFTLTISSLQPEDFAVYYCQQGYNLPYTFGQGTKVEIKEPKSSDKTHTCPPCPAPPAAAPSVFLFPPKPKDTLMISRTPEVTCVVVDVSHEDPEVKFNWYVDGVEVHNAKTKPREEQYNSTYRVVSVLTVLHQDWLNGKEYKCAVSNKALPAPIEKTISKAKGQPREPQVYTLPPSRDELTKNQVSLTCLVKGFYPSDIAVEWESNGQPENNYKTTPPVLDSDGSFFLYSKLTVDKSRWQQGNVFSCSVMHEALHNHYTQKSLSLSPGGGGSPSSYVLTQPPSVSVAPGQTARITCGGNNIGSKSVNWFQQKPGQAPVLVVYDDSGRPSGVPNRFSGSTSGNTATLTISRVEAGDEADYYCQVWDSSSDHVVFGGGTKLTVLGGGGSGGGGSGGGGSGGGGSQVQLVESGGGVVQPGRSLRLSCAASGFTLSYYGMHWVRQAPGKGLEWVAAISHDGSDKYYADSVKGRFTISRDNSKNRLYLQMNSLRAEDTAVYYCSNDQFDPWGQGTLVTVSSR
notes: ADAPTIR anti-4-1BB x anti-OX40, pI variant; PAA (del) Fc
B3: FXX01111 (bispecific antibody)
chain: EVQLVQSGAEVKKPGASVKVSCKASGYTFTSYWMNWVRQAPGQGLEWMGNIYPSGGSTNYAQKFQGRVTMTVDTSTSTVYMELSSLRSEDTAVYYCASFSDGYYAYAMDYWGQGTLVTVSSGGGGSGGGGSGGGGSGGGGSEIVMTQSPATLSLSPGERATLSCRASQSVSSYLNWYQQKPGQAPRLLIYYASRRHTGIPARFSGSGSGTDFTLTISSLQPEDFAVYYCQQGYNLPYTFGQGTKVEIKEPKSSDKTHTCPPCPAPPAAAPSVFLFPPKPKDTLMISRTPEVTCVVVDVSHEDPEVKFNWYVDGVEVHNAKTKPREEQYNSTYRVVSVLTVLHQDWLNGKEYKCAVSNKALPAPIEKTISKAKGQPREPQVYTLPPSRDELTKNQVSLTCLVKGFYPSDIAVEWESNGQPENNYKTTPPVLDSDGSFFLYSKLTVDKSRWQQGNVFSCSVMHEALHNHYTQKSLSLSPGGGGSPSSYVLTQPPSVSVAPGQTARITCGGNNIGSKSVNWFQQKPGQAPVLVVYDDSGRPSGVPNRFSGSTSGNTATLTISRVEAGDEADYYCQVWDSSSDHVVFGGGTKLTVLGGGGSGGGGSGGGGSGGGGSQVQLVESGGGVVQPGRSLRLSCAASGFTLSYYGMHWVRQAPGKGLEWVAAISHDGSDKYYADSVKGRFTISRDNSKNTLYLQMNSLRAEDTAVYYCSNDQFDPWGQGTLVTVSSR
notes: as for B2
B4: FXX01119 (bispecific antibody)
chain: EVQLVQSGAEVKKPGASVKVSCKASGYTFTSYWMNWVRQAPGQGLEWMGNIYPSGGSTNYAQKFQGRVTMTVDTSTSTVYMELSSLRSEDTAVYYCASFSDGYYAYAMDYWGQGTLVTVSSGGGGSGGGGSGGGGSGGGGSEIVMTQSPATLSLSPGERATLSCRASQSVSSYLNWYQQKPGQAPRLLIYYASRRHTGIPARFSGSGSGTDFTLTISSLQPEDFAVYYCQQGYNLPYTFGQGTKVEIKEPKSSDKTHTCPPCPAPPAAAPSVFLFPPKPKDTLMISRTPEVTCVVVDVSHEDPEVKFNWYVDGVEVHNAKTKPREEQYNSTYRVVSVLTVLHQDWLNGKEYKCAVSNKALPAPIEKTISKAKGQPREPQVYTLPPSRDELTKNQVSLTCLVKGFYPSDIAVEWESNGQPENNYKTTPPVLDSDGSFFLYSKLTVDKSRWQQGNVFSCSVMHEALHNHYTQKSLSLSPGGGGSPSSYVLTQPPSVSVAPGKTARITCGGNNIGSKSVNWFQQKPGQAPVLVVYDDSGRPSGVPNRFSGSTSGNTATLTISRVEAGDEADYYCQVWDSSSDHVVFGGGTKLTVLGGGGSGGGGSGGGGSGGGGSQVQLVESGGGVVQPGRSLRLSCAASGFTLSYYGMHWVRQAPGKGLEWVAAISHDGSDKYYADSVKGRFTISRDNSKNRLYLQMNSLRAEDTAVYYCSNDQFDPWGQGTLVTVSSR
notes: as for B2

Key:
Full-length Human 4-1BB = Full-length Human 4-1BB (human, UniProt Q07011 24-255); experiment: cell-based or functional assay
Full-length Human 4-1BB, sequence (Q07011 24-255): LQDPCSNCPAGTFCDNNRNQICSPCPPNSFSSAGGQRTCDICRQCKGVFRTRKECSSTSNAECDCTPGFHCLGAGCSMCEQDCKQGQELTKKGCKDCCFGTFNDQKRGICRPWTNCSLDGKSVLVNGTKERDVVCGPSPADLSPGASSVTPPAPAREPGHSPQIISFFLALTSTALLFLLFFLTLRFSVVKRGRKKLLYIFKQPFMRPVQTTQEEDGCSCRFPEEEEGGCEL

Full-length Human OX40 [1] = biological target: T1, Full-length Human OX40; experiment: cell-based or functional assay
Full-length Cyno 4-1BB [2] = biological target: T2, Full-length Cyno 4-1BB; experiment: flow cytometry on Jurkat cells transfected with cynomolgus 4-1BB, goat anti-human Fc secondary antibody, MFI (Mean)
Procedure: (§1) FIGS. 12A-12D show the binding of anti-4-1BB x anti-OX40 constructs, with additional humanization in 4-1BB and altered orientations of binding domains, human (12A) or cynomolgus (12C) 4-1BB-expressing Jurkat cells or human (12B) or cynomolgus (12D) OX40-expressing CHOK1SV cells. Serial dilutions of ADAPTIR™ constructs were incubated with transfected cells and subsequently labelled with a fluorescently-conjugated goat-a-human Fc secondary antibody. […] (See Example 19.)
(§2) Binding studies were performed using the flow cytometry-based staining procedures described above.

Full-length Cyno OX40 = biological target: T3, Full-length Cyno OX40; experiment: flow cytometry on CHOK1SV cells transfected with cynomolgus OX40, goat anti-human Fc secondary antibody, MFI (Mean)
Procedure: as §1, §2

Full-length Cyno 4-1BB [3] = biological target: T2, Full-length Cyno 4-1BB; experiment: flow cytometry on Jurkat cells transfected with cynomolgus 4-1BB, goat anti-human Fc secondary antibody, MFI (Mean)
Procedure: Serial dilutions of ADAPTIR™ constructs were incubated with transfected target cells and subsequently labelled with a fluorescently-conjugated goat-a-human Fc secondary antibody. […] (See Example 25.)

Full-length Human OX40 [4] = biological target: T1, Full-length Human OX40; experiment: flow cytometry, CHO cells expressing human OX40
Procedure: as §1, §2

Cyno OX40-AFH = biological target: T4, Cyno OX40-AFH; experiment: SPR (Biacore 8K), construct captured, monovalent ECD
Cyno 4-1BB ECD-AFH = biological target: T5, Cyno 4-1BB ECD-AFH; experiment: as above

4-1BB Reporter Assay EC50 (Full-length Human 4-1BB)	4-1BB Reporter Assay Max induction (Full-length Human 4-1BB)	OX40 Reporter Assay EC50 (Full-length Human OX40 [1])	OX40 Reporter Assay Max induction (Full-length Human OX40 [1])	EC50 (read off the curve) (Full-length Cyno 4-1BB [2])	EC50 (read off the curve) (Full-length Cyno OX40)	EC50 (read off the curve) (Full-length Cyno 4-1BB [3])	EC50 (Full-length Human OX40 [4])	max MFI (Full-length Human OX40 [4])	Kd (Cyno OX40-AFH)	koff (Cyno OX40-AFH)	kon (Cyno OX40-AFH)	Kd (Cyno 4-1BB ECD-AFH)	koff (Cyno 4-1BB ECD-AFH)	kon (Cyno 4-1BB ECD-AFH)	Binder
0.017 nM	1.37e+06	0.021 nM	5.86e+06	~0.3 nM	~1 nM	~0.4 nM	0.29 nM	10400 MFI	< 1 nM	0.00019 s⁻¹	1.5e+06 M⁻¹ s⁻¹	92 nM	0.0092 s⁻¹	100000 M⁻¹ s⁻¹	B1
0.018 nM	1.36e+06	0.019 nM	6.29e+06	–	–	~0.3 nM	–	–	< 1 nM	0.00021 s⁻¹	1.1e+06 M⁻¹ s⁻¹	72 nM	0.0074 s⁻¹	100000 M⁻¹ s⁻¹	B2
0.019 nM	1.43e+06	0.017 nM	6.09e+06	–	–	~0.3 nM	–	–	< 1 nM	0.00029 s⁻¹	1.1e+06 M⁻¹ s⁻¹	81 nM	0.008 s⁻¹	99000 M⁻¹ s⁻¹	B3
0.011 nM	1.37e+06	0.012 nM	6.07e+06	–	–	~0.3 nM	–	–	0.2 nM	0.00023 s⁻¹	1e+06 M⁻¹ s⁻¹	79 nM	0.0075 s⁻¹	95000 M⁻¹ s⁻¹	B4
